We go through one substance from article PMC6135645.

This experiment deals with Light-Harvesting Complex II (LHCII), trimeric (spinach (endogenous in spinach leaves)). In words: native gel or EMSA; non-denaturing Clear Native PAGE (NativePAGE Novex 4-16% Bis-Tris), Coomassie staining; LHCII in α-DDM after sucrose gradient and size-exclusion chromatography. A general note: A gel shift assay detects complexes by their altered migration in electrophoresis.

One may read the stoichiometry N as the number of molecules, sites or subunits per partner or assembly. “Light-Harvesting Complex II (LHCII), trimeric” returned a stoichiometry N of 3.
